This passage reports peptides control and peptides sample results from US20140342369A1.

Assay [1] concerns the target Calnexin (Canx1) (mouse) (UniProt P35564). In words: control pulldown (background; control not described), mass spectrometry of eluted proteins.
For assay [2], the target named is Dolichyl-diphosphooligosaccharide--protein glycosyltransferase SU 1 (Rpn1) (mouse) (UniProt Q91YQ5). Described as above.
Assay [3] deals with Guanine nucleotide-binding protein G(i) subunit alpha-2 (Gnai2) (mouse) (UniProt P08752). The description is as above.
Chain of UniProt P08752 (P08752 2-355 limits assumed): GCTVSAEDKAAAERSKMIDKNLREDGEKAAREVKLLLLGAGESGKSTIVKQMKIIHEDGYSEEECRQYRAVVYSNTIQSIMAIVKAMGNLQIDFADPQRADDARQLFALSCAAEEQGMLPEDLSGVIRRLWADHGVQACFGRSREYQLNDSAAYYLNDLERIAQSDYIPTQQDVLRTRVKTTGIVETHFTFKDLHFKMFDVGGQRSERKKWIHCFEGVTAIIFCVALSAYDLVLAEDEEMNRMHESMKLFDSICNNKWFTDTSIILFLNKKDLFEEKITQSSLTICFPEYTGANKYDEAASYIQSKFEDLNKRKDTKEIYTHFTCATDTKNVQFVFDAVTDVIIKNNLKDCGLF
The target in assay [4] is LYRIC (Mtdh, Metadherin) (mouse) (UniProt Q80WJ7). Described as above.
Chain of UniProt Q80WJ7 (Q80WJ7 whole entry): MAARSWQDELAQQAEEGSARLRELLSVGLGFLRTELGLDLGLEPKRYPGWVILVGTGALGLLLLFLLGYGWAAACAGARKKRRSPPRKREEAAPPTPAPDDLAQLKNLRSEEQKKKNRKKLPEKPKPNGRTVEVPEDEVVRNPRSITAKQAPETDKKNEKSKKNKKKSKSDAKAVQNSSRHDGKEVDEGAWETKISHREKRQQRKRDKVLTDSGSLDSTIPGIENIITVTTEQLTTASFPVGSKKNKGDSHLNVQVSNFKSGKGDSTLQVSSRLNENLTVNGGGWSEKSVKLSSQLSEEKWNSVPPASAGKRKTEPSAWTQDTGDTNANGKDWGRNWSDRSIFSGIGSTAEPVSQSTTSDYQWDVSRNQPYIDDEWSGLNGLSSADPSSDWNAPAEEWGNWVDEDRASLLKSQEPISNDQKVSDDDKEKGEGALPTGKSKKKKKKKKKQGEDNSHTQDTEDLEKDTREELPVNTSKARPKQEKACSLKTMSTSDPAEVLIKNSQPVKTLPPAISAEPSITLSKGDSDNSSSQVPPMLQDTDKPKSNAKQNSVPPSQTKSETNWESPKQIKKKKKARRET
Assay [5] addresses Neurabin-1 (Ppp1r9a) (mouse) (UniProt Q7TN74). The assay is described as above.
Chain of UniProt Q7TN74 (Q7TN74 entry or part of it): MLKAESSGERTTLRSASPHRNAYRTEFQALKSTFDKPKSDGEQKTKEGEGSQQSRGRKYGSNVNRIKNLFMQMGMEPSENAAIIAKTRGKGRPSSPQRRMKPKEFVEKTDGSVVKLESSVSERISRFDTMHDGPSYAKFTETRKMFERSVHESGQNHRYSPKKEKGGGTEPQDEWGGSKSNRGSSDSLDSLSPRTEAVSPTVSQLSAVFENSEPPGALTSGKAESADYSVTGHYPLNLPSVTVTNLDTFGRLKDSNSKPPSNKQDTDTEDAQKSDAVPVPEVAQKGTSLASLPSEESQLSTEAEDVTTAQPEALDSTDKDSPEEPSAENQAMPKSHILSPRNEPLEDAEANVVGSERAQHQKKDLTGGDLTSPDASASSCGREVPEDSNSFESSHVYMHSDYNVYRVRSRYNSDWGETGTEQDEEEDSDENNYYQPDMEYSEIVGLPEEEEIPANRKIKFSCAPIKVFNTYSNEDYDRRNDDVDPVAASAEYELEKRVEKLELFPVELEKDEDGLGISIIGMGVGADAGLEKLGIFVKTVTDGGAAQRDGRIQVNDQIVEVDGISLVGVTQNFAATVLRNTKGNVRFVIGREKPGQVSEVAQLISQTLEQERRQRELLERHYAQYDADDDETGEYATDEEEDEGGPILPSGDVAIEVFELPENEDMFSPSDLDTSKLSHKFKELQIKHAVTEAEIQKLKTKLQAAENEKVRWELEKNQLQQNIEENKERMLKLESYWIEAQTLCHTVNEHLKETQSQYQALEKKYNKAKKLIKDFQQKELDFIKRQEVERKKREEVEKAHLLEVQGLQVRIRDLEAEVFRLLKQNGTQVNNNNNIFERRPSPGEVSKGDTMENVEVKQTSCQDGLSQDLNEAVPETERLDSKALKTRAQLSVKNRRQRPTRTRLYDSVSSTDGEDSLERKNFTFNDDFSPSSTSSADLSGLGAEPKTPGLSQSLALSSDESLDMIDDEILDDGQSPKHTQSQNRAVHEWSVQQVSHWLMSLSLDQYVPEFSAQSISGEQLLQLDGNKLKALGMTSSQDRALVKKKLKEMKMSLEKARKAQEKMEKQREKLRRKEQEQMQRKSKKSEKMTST
Assay [6] deals with Neurabin-2, Spinophilin (Ppp1r9b) (mouse) (UniProt Q6R891). The assay is described as above.
Chain of UniProt Q6R891 (Q6R891 whole entry): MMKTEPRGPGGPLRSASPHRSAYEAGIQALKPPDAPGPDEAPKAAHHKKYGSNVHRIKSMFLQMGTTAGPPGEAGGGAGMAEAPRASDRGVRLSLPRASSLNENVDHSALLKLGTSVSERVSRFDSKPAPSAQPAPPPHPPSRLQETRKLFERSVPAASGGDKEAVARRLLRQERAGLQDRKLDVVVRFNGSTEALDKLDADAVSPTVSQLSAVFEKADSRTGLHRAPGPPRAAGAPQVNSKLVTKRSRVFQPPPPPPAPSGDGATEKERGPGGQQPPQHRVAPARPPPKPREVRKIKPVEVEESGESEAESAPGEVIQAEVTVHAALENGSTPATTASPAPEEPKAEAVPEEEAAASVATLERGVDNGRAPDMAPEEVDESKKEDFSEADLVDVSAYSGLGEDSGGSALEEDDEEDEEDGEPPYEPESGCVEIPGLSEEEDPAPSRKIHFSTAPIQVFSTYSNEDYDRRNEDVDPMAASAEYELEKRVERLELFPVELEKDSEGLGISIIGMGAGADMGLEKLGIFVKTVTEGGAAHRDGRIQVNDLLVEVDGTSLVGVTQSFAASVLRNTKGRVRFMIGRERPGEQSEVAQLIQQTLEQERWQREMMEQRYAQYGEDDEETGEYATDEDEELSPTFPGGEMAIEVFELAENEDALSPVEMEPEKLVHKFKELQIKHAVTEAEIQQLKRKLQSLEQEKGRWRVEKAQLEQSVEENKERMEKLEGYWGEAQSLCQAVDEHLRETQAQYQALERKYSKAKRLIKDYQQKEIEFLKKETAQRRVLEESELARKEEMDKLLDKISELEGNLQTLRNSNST
In assay [7] the target is Solute carrier family 2, facilitated glucose transporter member 3 (Slc2a3) (mouse) (UniProt P32037). The assay is described as above.
Chain of UniProt P32037 (P32037 whole entry): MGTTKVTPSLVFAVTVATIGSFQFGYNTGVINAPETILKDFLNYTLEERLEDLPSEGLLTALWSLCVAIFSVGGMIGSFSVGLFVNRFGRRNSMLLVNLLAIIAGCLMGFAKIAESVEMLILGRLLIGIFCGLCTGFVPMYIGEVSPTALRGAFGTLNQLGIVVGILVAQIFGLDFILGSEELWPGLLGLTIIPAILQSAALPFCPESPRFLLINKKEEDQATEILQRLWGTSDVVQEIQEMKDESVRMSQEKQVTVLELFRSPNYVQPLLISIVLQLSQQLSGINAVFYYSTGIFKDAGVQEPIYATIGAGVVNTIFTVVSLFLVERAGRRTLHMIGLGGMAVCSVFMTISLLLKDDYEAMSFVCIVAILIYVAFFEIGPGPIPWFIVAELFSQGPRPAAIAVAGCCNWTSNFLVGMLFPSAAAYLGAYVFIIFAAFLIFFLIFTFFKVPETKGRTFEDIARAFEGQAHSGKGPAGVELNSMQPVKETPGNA
The target in assay [8] is Calnexin (Canx1) (mouse) (UniProt P35564). In words: anti-HA pulldown of tagged Gpr107 from whole cell lysate, mass spectrometry of eluted proteins.
For assay [9], the target named is Dolichyl-diphosphooligosaccharide--protein glycosyltransferase SU 1 (Rpn1) (mouse) (UniProt Q91YQ5). Described as above.
Assay [10] deals with Guanine nucleotide-binding protein G(i) subunit alpha-2 (Gnai2) (mouse) (UniProt P08752). Described as above.
The target in assay [11] is LYRIC (Mtdh, Metadherin) (mouse) (UniProt Q80WJ7). Described as above.
The target in assay [12] is Neurabin-1 (Ppp1r9a) (mouse) (UniProt Q7TN74). Described as above.
Assay [13] concerns the target Neurabin-2, Spinophilin (Ppp1r9b) (mouse) (UniProt Q6R891). Described as above.
The target of assay [14] is Solute carrier family 2, facilitated glucose transporter member 3 (Slc2a3) (mouse) (UniProt P32037). The assay is described as above.

Chain of UniProt P35564 (P35564 21-591 limits assumed): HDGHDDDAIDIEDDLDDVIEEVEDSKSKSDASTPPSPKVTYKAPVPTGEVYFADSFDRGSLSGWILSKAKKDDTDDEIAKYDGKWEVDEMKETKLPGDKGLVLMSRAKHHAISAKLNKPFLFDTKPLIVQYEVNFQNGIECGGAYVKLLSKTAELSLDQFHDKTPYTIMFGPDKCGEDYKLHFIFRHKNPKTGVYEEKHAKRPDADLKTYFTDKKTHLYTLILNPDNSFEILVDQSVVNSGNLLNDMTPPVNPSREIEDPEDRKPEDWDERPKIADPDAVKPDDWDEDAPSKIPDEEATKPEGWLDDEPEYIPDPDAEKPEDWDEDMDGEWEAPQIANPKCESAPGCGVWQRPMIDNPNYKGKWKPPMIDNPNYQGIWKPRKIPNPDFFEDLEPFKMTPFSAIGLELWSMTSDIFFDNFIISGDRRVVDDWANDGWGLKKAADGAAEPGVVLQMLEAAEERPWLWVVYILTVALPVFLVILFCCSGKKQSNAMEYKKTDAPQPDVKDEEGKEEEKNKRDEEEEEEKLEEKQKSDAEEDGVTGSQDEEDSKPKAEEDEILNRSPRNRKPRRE
Chain of UniProt Q91YQ5 (Q91YQ5 26-608 limits assumed): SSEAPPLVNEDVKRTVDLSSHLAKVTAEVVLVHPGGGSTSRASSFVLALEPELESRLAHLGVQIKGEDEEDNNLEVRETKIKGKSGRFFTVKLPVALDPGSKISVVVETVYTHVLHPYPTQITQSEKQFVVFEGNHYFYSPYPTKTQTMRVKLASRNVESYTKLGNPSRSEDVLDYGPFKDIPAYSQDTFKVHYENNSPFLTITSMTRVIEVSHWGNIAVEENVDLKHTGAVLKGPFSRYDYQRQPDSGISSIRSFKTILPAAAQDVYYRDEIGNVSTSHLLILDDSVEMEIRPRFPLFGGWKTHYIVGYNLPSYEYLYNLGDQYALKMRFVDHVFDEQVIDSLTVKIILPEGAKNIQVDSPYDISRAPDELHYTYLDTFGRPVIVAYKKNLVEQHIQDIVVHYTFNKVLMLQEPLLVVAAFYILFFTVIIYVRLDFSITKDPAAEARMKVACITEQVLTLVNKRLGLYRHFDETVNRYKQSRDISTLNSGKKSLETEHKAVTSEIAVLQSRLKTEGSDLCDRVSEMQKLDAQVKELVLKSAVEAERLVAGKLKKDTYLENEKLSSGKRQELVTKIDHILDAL

Regarding “C-terminally tagged (mCherry, Ha, myc) version of Gpr107 (G protein coupled receptor 107) (from UniProt Q8BUV8 34-551)”, the peptides control worked out at 3 peptides in assay [1]; 3 peptides in assay [2]; 0 peptides in assay [3]; 0 peptides in assay [4]; 0 peptides in assay [5]; 8 peptides in assay [6]. Further, the peptides control in assay [7] was 0 peptides. For the same substance, the peptides sample in assay [8] amounted to 7 peptides; in [9], 8 peptides; in assay [10] it was 19 peptides; in [11], 46 peptides; in assay [12], 13 peptides; in assay [13], 136 peptides. In assay [14], the peptides sample is 5 peptides.
